From publication PMC10234109 (2023) come the findings set out here.

For the test, the target named is T1, HCBD–GST (helical cargo-binding domain of mouse Myo6, residues 1052–1096) (Mus musculus (Mouse), UniProt Q64331).
T1 chain: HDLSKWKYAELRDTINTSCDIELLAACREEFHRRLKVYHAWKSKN
Description: GST pulldown, Coomassie-stained gel.

B1: GIPC3 PDZ-GH2 domains (93–297), MBP-tagged (protein)
chain: GETKEVEVTKTEDALGLTITDNGAGYAFIKRIKEGSIINRIEAVCVGDSIEAINDHSIVGCRHYEVAKMLRELPKSQPFTLRLVQPRRAFDMIGQRSRSSKCPVEAKVSSGRETLRLRSGGAATVEEAPSDVEAAAARRVDDLLESYMGIRDPELAAAVVETARSSAGAQAFARGLDAVLGEFAFPDEFVVEVWAAIGEAHDACG
Turning to B1, the binding result is listed as “binds”.

B2: GIPC3 PDZ (93–181), MBP-tagged (protein)
chain: GETKEVEVTKTEDALGLTITDNGAGYAFIKRIKEGSIINRIEAVCVGDSIEAINDHSIVGCRHYEVAKMLRELPKSQPFTLRLVQPRRA
As for B2, the binding result is given as “no binding”.
